In patent publication US5474928A, “Arginine deiminase from a Mycoplasma arginini strain” (Nippon Mining Company, Limited, priority 1989, dated 1995) one finds Km data, which are given here for one protein.

Substrate in this data set: N=C(N)NCCC[C@H](N)C(=O)O
The experiment in a line: Km determination by Lineweaver-Burk plot analysis, citrulline formation assay. The data set is classed as biochemical, Mycoplasma arginini. As to conditions: other: purified enzyme from M. arginini, substrate L-arginine, pH 7.0. How it is done: The activity of arginine deiminase can be determined by causing it to produce citrulline using the method reported by Fenske et. al. [J. Bacteriol. 126, 501-510 (1976)], and by measuring the amount of the yields using the method given by Archibald [J. Biol. Chem. 156, 121-142 (1944)].
Specifically, 20 μl of arginine deiminase solution is added to 1.0 ml of 10 mM arginine [dissolved in 0.1M phosphate buffer of pH 7.0], then an enzyme reaction is allowed to take place at 37° C. for 10 minutes, and the reaction is terminated by adding 1 ml of mixed acid solution (H2 SO4 :H3 PO4 =1:3). Then, the resultant reactive solution is added with 25 μl of 3% aqueous diacetylmonooxim solution, heated at 100° C. for 20 minutes under a light-shielded condition, left to cool under a room temperature for 30 minutes, and then the amount of the citrulline yield is measured quantitatively by measuring the absorbence at 490 nm. The activity of arginine deiminase producing 1 μmol of citrulline in one minute is defined as 1 unit.
v) Km value and Vmax value
By the Lineweaver-Burk plot analysis Km and Vmax were determined as 0.2 mM and 50 U/mg, respectively.

B1: Mycoplasma arginini (IFO 14476) arginine deiminase (EC 3.5.3.6), present invention, amino acid sequence of FIG. 4 (Mycoplasmopsis arginini) (protein)
chain: MSVFDSKFKGIHVYSEIGELESVLVHEPGREIDYITPARLDELLFSAILESHDARKEHKQFVAELKANDINVVELIDLVAETYDLASQEAKDKLIEEFLEDSEPVLSEEHKVVVRNFLKAKKTSRELVEIMMAGITKYDLGIEADHELIVDPMPNLYFTRDPFASVGNGVTIHYMRYKVRQRETLFSRFVFSNHPKLINTPWYYDPSLKLSIEGGDVFIYNNDTLVVGVSERTDLQTVTLLAKNIVANKECEFKRIVAINVPKWTNLMHLDTWLTMLDKDKFLYSPIANDVFKFWDYDLVNGGAEPQPVENGLPLEGLLQSIINKKPVLIPIAGEGASQMEIERETHFDGTNYLAIRPGVVIGYSRNEKTNAALEAAGIKVLPFHGNQLSLGMGNARCMSMPLSRKDVKW
notes: Arginine deiminase was purified from the M. arginini cell extract; endogenous in cells; host or cells: Mycoplasma arginini IFO 14476 cells (strain from the Institute for Fermentation, Osaka); enzyme purified in house by three chromatography steps
One may read the Km as the substrate concentration at which the rate is half of its maximum. Take B1: the Michaelis constant (Km) was determined as 200 µM.
